# Test results from IntAct's records for PubMed 16239229.
# B1: Co-chaperonin GroES (Escherichia coli (strain K12)), P0A6F9 (parent)
# chain: MNIRPLHDRVIVKRKEVETKSAGGIVLTGSAAAKSTRGEVLAVGNGRILENGEVKPLDVKVGDIVIFNDGYGVKSEKIDNEEVLIMSESDILAIVEA
# Variants of: B1
# Settings: with ch60_ecoli groEL
row,Variant,effect of a mutation on the interaction
1,MNIRPLHDRVIVKRKEVETKSAGGIVLTGCAAAKSTRGEVLAVGNGRILENGEVKPLDVKVGDIVIFNDGYGVKSEKIDNEEVLIMSESDILAIVEA [S30C],increasing interaction strength
2,MNIRPLHDRVIVKRKEVETKSAGGIVLCGSAAAKSTRGEVLAVGNGRILENGEVKPLDVKVGDIVIFNDGYGVKSEKIDNEEVLIMSESDILAIVEA [T28C],increasing interaction
3,MNIRPLHDRVIVKRKEVETKSAGGIVLTCSAAAKSTRGEVLAVGNGRILENGEVKPLDVKVGDIVIFNDGYGVKSEKIDNEEVLIMSESDILAIVEA [G29C],increasing interaction strength
